Measurements from patent US20250009878A1.

Target: WT MCT1/BSG-2 complex (mouse) (mouse) (UniProt P53986)
Test: cell-based or functional assay

Chain of UniProt P53986 (P53986 whole entry, chain 1 of 2): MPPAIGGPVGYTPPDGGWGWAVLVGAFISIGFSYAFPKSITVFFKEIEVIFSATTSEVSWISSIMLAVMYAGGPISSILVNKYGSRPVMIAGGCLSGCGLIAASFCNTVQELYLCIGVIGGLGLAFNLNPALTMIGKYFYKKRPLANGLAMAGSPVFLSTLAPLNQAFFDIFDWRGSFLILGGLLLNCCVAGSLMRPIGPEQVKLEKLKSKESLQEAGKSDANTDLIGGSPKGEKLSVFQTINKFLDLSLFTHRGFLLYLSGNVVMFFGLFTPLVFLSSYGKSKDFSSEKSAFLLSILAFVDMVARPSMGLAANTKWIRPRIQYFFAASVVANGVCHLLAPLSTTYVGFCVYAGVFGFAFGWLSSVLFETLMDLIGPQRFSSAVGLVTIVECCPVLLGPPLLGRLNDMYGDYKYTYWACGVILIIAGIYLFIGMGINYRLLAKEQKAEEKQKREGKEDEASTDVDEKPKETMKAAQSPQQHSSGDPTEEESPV
Chain of UniProt P53986 (P18572 other isoform, or with tags, fused parts or gaps, chain 2 of 2, further chain): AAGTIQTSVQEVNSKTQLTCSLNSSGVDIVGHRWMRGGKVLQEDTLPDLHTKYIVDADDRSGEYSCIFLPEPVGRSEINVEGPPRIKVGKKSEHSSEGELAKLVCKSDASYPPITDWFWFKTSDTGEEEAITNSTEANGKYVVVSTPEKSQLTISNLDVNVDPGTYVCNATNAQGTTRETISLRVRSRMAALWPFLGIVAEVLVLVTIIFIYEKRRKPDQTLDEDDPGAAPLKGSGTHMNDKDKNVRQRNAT

B1: WZHAb10 (antibody, human IgG1, kappa, V domains shown)
VH: QVQLVQSGAEVKKPGASVKVSCKASGYTFTNYWIHWVRQAPGQGLEWMGMIHPNSGSINYNEKFKTRVTMTRDTSTSTVYMELSSLRSEDTAVYYCARVGSGSLDYWGQGTLVTVSS
VL: EIVLTQSPATLSLSPGERATLSCRASQSISDYLHWYQQKPGQAPRLLIKYVSQSISGIPARFSGSGSGTYFTLTISSLEPEDVAVYYCQNGEEAPYTFGQGTKLEIKR
B1 gave a decrease in transport activity (H+ influx, HPTS proteoliposome flux assay) of 75%.
